Target: receptors for SCF (kit) on EML clone 1 cells (UniProt P05532)
Test: cell-based or functional assay

Sequence of UniProt P05532 (P05532 25-979 limits assumed): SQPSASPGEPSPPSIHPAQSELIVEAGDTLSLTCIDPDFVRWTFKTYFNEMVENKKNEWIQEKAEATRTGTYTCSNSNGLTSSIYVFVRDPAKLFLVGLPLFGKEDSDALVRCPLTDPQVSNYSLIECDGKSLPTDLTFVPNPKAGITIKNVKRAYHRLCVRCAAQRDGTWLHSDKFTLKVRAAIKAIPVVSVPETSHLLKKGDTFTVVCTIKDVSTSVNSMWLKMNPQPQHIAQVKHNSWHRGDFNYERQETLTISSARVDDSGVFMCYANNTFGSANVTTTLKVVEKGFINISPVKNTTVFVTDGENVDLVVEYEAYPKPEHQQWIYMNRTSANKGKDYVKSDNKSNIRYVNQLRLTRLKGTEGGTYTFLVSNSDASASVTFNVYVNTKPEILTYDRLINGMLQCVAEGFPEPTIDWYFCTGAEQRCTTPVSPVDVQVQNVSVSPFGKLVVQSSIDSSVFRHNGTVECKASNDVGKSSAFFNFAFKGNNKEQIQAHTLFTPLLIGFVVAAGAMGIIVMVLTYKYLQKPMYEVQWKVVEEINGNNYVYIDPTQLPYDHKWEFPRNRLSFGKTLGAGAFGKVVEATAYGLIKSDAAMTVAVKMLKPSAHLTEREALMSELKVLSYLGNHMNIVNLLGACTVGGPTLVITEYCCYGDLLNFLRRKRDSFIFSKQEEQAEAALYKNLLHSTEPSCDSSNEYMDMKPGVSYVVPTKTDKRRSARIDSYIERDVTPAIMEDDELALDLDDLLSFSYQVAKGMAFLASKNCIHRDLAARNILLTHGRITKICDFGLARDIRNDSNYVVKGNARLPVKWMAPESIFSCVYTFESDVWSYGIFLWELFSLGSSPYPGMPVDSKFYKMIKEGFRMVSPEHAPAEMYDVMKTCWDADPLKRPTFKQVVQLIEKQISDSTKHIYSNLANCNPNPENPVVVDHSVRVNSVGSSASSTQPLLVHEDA

fold-increase over control of cell proliferation of EML cells (total DNA, 5 days), 10 nM SCF: 1.25 fold
fold-increase over control of cell proliferation of EML cells (total DNA, 5 days), 50 nM SCF: 2.4 fold
Substance: Stem Cell Factor (SCF) (ligand)

— US20090275130A1
